Laboratory results from article PMC10343166, “Structure of puromycin-sensitive aminopeptidase and polyglutamine binding” (PLOS ONE, 2023).

Experiments:
[1] = target: T1, Puromycin-sensitive aminopeptidase, wild type, with C-terminal polyhistidine sequence (kinetic studies) (human, UniProt P55786 1-919); test: competitive inhibition of enzyme activity (Dixon plots); apparent Ki from inhibition of Ala-4MβNA cleavage at increasing peptide concentrations; 20 mM HEPES pH 7.0, 2 mM BME, 37°C; 20 μM (PSA^wt) or 100 μM (PSA^F433A) Ala-4MβNA; triplicate; settings: both partners purified
T1 construct: Human puromycin-sensitive aminopeptidase (PSA, NPEPPS), UniProt P55786; also called PSA^wt; wild type PSA

[2] = target: T2, Puromycin-sensitive aminopeptidase F433A mutant, with C-terminal polyhistidine sequence (human, UniProt P55786 1-919, F433A); test: as above; settings: both partners purified
T2 construct: Human puromycin-sensitive aminopeptidase (PSA, NPEPPS), UniProt P55786, with F433A; also called PSA^F433A
T2 sequence (P55786 whole entry F433A): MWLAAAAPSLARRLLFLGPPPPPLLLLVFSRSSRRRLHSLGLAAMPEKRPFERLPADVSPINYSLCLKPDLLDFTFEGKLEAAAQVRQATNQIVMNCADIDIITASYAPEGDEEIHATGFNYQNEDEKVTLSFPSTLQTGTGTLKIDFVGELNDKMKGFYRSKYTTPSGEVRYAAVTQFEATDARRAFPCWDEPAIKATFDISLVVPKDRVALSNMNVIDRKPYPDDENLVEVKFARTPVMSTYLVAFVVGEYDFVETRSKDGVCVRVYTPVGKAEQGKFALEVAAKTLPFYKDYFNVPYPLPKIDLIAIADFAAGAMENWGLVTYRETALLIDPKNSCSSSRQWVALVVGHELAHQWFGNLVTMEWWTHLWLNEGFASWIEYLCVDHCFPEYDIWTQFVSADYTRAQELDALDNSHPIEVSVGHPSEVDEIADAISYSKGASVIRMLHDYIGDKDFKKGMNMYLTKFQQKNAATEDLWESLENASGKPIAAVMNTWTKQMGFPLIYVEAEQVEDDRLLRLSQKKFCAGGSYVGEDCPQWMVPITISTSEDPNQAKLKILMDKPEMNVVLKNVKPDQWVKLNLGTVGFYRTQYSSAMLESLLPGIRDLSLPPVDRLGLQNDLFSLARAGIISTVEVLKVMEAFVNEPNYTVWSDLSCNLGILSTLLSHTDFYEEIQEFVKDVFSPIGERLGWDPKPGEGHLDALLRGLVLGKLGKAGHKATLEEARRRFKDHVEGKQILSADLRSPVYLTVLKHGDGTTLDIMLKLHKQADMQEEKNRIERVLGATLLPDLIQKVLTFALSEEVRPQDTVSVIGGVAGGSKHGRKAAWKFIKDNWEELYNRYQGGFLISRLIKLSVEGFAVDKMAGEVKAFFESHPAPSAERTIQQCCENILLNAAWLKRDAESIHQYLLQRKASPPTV

T1 sequence (P55786 whole entry): as the sequence (P55786 whole entry F433A) above, with A433F counted along it

Ki [1]: 1.3 µM | Ki [2]: 4.9 µM
B1: Polyglutamine peptide Lys2Gln15Lys2 (peptide)
peptide: KKQQQQQQQQQQQQQQQKK
notes: Printed as Lys2Gln15Lys2 (19-mer); In PDB 8SW1 only 6 residues are modelled, deposited as polyalanine; also called PQ; PQ peptide; source: synthetic peptide, bought: Peptidogenic Research and Co; purified (TFA/hexafluoro-2-propanol, centrifugation)
